Measured values published in the nanobody polyreactivity screen of Harvey et al. (2022).

Test: yeast display, Sf9 membrane polyspecificity reagent, FACS + sequencing; frameworks hold sequencing errors
Summary of the method: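 In a synthetic yeast display library (Saccharomyces cerevisiae BJ5465), nanobody expression was induced with galactose for 36–48 hours. FACS gates were set low and high (top ~1%) using anti-HA fluorescence for expression and streptavidin fluorescence for binding of the Sf9 membrane reagent. Each polyreactivity label is drawn from the gate of origin.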

Row | Sequence | polyreactivity (PSR sort gate)
1 | QVQLVESGGGLVQAGGSLRLICAASGITTRTYAMGWYRQAPGKDRELVAAISDSGDRTYYADSVKGRFTISRDNAKNTVYLQMNRLKPEDTAVYYCAVDAPGPRCEFWGQGTKVTVSS | low polyreactivity
2 | QVQLVESGGGLVQAGGSLRLICAASGLIFGRYDMGWYRQAPGKERELVAAISGGTTNYADSVKGRFTISRDNAKNTVYLEMNSLKPEDTAVYYCNAGPSQPGGIFYEYDYWGQGTQVTVSS | low polyreactivity
3 | QVQLVESGGGLVQAGGSLRLICAASGLIFKFYAMGWYRQAPGKERELVASIRGSGDNTYYADSVKGRFTISRDNAKNTVYLQMNSLKPEDTAVYYCAADWLYDYGEYYYWGQGTQVTVSS | high polyreactivity
4 | QVQLVESGGGLVQAGGSLRLICAASGLIFRGYAKGWYRQAPGKERELVAAISKSGGSTYYADSVKGRFTISRDNAKNTVYLQMNSLKPEDTAVYYCNTDYVWKYFLSSQYDYWGQGTQVTVSS | high polyreactivity
5 | QVQLVESGGGLVQAGGSLRLICAASGLTFVYYTKRSYTQAPGKEREFVAGINSGGSTYYADSVKGRFTISRDNAKNTVYVQMNSLKPVDTAVYYCAAVERGYRRFRRIYDYWGQGTQVTVSS | high polyreactivity
6 | QVQLVESGGGLVQAGGSLRLICAASGLTFWYYAMGWYRQAPGKERELVARITRSGVGTYYADSVKGRFTISRDNAKHTVYLQMNSLKPEDTAVYYCNARYQYSWVRYGYDYWGQGTQVTVSS | high polyreactivity
7 | QVQLVESGGGLVQAGGSLRLICAASGLTYVSYAMGWYRQAPGKERELVAGITSGGGTTDYADSVKGRFTISRDNAKTTVYLQMNSLTPEDTAVYDCNARSVYDGFWYNYWGQGTQVTVSS | high polyreactivity
8 | QVQLVESGGGLVQAGGSLRLICAASGMTFYSYAMGWYRQAPGKERELVAAISATGGRTYYADSEKGRFTISRDNAKNTVYLQMNSLKPEDTEVYYCAAKSSYEYGYWGQGTQVTVSS | high polyreactivity
9 | QVQLVESGGGLVQAGGSLRLICAASGNTFGYNAMVWYRQAPGKERELVASITLSGGSTYYADSVKGRFTISRDTAKNTVYLQMFCLKPEDTAVYYCNADTFQWWDIADVYVIVKYGYWGQGTQVTVSS | low polyreactivity
10 | QVQLVESGGGLVQAGGSLRLICAASGNTFKYNAMGWYRQAPGKERELVAAITWRGTSTSYADSVKGRFTISRDNAKNTVYLQMNSLKAEDTAFYYSNAVYYWYGRVAYSFGYWGQGTQVTVSS | high polyreactivity
11 | QVQLVESGGGLVQAGGSLRLICAASGNTFSVYTMGWYRQAPGKERELVAAISFRSGSTYYADSVKGRFTISRDNAKNTVYLLMNSLKPEDTAVYYCAAYVRQLQVVRGVSNYDSWGQGTQVTVSS | high polyreactivity
12 | QVQLVESGGGLVQAGGSLRLICAASGNTLGPYAMGWYRQAPGKERELVAAITWSGGITDYADSVKGRFTISRDNAKNTVYLQMNSLKPEDTAVYYCNAGPSLGIFQGTSVGLRYDYWGQGTQVTVSS | low polyreactivity
13 | QVQLVESGGGLVQAGGSLRLICAASGRICISNAMGWYRQAPGKERELVAAITWIGDRTYYADSVKGRFTISRDNAKNTVYLQMISLKPEDTAVYYCAADSYSPYTMDYWRQGTQVTVSS | high polyreactivity
14 | QVQLVESGGGLVQAGGSLRLICAASGRIFDFYAMGWYRQAPGKERELVAAITNGGRTNYADSVKGRFTISRDNAKNTVYLQMNSLKPEDTAVYYCAARLAYWYYYAWRGPYYYWGQGTQVTVSS | high polyreactivity
15 | QVQLVESGGGLVQAGGSLRLICAASGRIFDSYTMGWYRQAPGKERELVAAISRGGGSTYYADSVKGRFTISRDNAKNTVYLQMNSLKPEDTAVFYCAASSYLNSRFKFDYWGQGTQVTVSS | low polyreactivity
16 | QVQLVESGGGLVQAGGSLRLICAASGRIFGYYAMGWYRQAPGKERELVAAIDGSDGTTYYADSVKGRFTISRDNAKNTVYFHMNSLKPEDTAVYYCAKDNSLPDYDYWGQGTQVTVSS | low polyreactivity
17 | QVQLVESGGGLVQAGGSLRLICAASGRIFLENALGWYRQAPGKERELVATISNGGSTSYADSVKGRFTISRDNAKNKVYLQMISLKPEDTSVYYCAADYCWPYILYGYDYWGEGTQVTVSS | low polyreactivity
18 | QVQLVESGGGLVQAGGSLRLICAASGRIFLYYAMGWYRQAPGKERELVAAITRGGGTTYADSVKGRFTISRDNAKNTVYLQMNSLKPEDTAVYYCAKRYSYYPGFDYWGQGTQVTVSS | high polyreactivity
19 | QVQLVESGGGLVQAGGSLRLICAASGRIFNRYAMGWYRQAPGNERELVAAITWSGDRTNYADSVKGRFTISRDNAKNTVYLLMNSLKPEDTAVYYCAAADGIIESDYWGQGTQVTVSS | low polyreactivity
20 | QVQLVESGGGLVQAGGSLRLICAASGRIFNYNYMGLYRQAPGKERELLAAISWRGGSTYYADSVKGRFTISRDNAKNTVYLQMKSLKPEDTAVYYCNKRTRYSTGSRYDYWGQGTQVTVSS | high polyreactivity
21 | QVQLVESGGGLVQAGGSLRLICAASGRIFRANARGWYRQAPGKERELVATIRNSGGITYYADSVKGRFTISRDHAKNTVYLQMNSLKPEDTALYYCGNLGRYCYDYWGQGTQVTVSS | high polyreactivity

Row | Sequence | polyreactivity (PSR sort gate)
22 | QVQLVESGGGLVQAGGSLRLICAASGRIFRINAMGWYRQAPGKEREFVAAISWRSGSTYYADSVKGRFTISRDNAKNSVYLQMNSLKPEDTAVYYCAAKLYGYRSGYYYWGQGTQVTVSS | high polyreactivity
23 | QVQLVESGGGLVQAGGSLRLICAASGRIFRPYAMGWYRQAPGKERELVAAISSSGGSTYYADSVKGRFTISRDNAKNTVYLQMNSLKPEDTAVYYCATYFARGRRYDYWGQGTQVTVSS | high polyreactivity
24 | QVQLVESGGGLVQAGGSLRLICAASGRIFSSYAMGWYRQAPGKERELVAAISRGGGRTYYADSVKGRFTISRDNAKNTVYLQMNSLKPEDTAVYYCAVRLYYSIRYYYWGQGTQVTVSS | high polyreactivity
25 | QVQLVESGGGLVQAGGSLRLICAASGRIFSYYAMGWYRQAPGKERELVARITSRGASTYYADSVKGRFTISRDNAKNTVYLQMNSLKPEDTAVYYCAARYIPIQYPSYRTWGGYSWGQGTQVTVSS | high polyreactivity
26 | QVQLVESGGGLVQAGGSLRLICAASGRIFVYNAKGSYSQAPGKDRELVATITSGGSTYYSDSVKGRFTISRDNAKNTVYFQMNSLKPEDTAVYYCAARRWYVHYFAYGYWGQGTQVTVSS | low polyreactivity
27 | QVQLVESGGGLVQAGGSLRLICAASGRIFYGYAMGWYRPAPGKEREFVAAITVSAGSTYYADSVKGRFTISRDNAKNTVYLQMNSLKPEDTAVYYCAAKRYVYPSYRFDYWGQGTQVTVSS | low polyreactivity
28 | QVQLVESGGGLVQAGGSLRLICAASGRIFYYYTMGWYRQAPGKERELVAAITRSGSSTYADSVKGRFTISRDNAKNTVYLQMNSLKPEDTAVYYCAADYIRRYDYWGQGTQVTVSS | low polyreactivity
29 | QVQLVESGGGLVQAGGSLRLICAASGRIVEGYAMGWYRQAPGKERELDAAISSGGSTYYADSVKGRFTISRDNAKNTVYLQMNSLKPEDTAVYYCNAAHSVVSHGPGAGLEMDYWGEGTQVTVSS | low polyreactivity
30 | QVQLVESGGGLVQAGGSLRLICAASGRNFTKYAMGLYRQAPGKERELVAAINFRGDRTYYADSVKGRYTISRDNAKNTVYLQMNSLKPEDTAVYYCAAEWSTYWLFNYEYWGQGTQVTVSS | high polyreactivity
31 | QVQLVESGGGLVQAGGSLRLICAASGRSFNLYAMGWYRQAPGKERELVAAISYSGGRTYSADSVKGRFTISRDNAKNTVYLQMNSLKPEDTAVYYCNTVRGSVRQAGVGYEYWGQGTQVTVSS | high polyreactivity
32 | QVQLVESGGGLVQAGGSLRLICAASGRTFCAYAMGWYRQAPGKERELVAAITTSGGSTNYADSVKGRFTISRDTAKYTVYLEMKSLKPEETAVYYCNADPTYHVVNGVGFWGQGTQVTVSS | low polyreactivity
33 | QVQLVESGGGLVQAGGSLRLICAASGRTFFPYAMGWYRQAPGKEREFFAAISTRGGSTYYADSVKGRFTISRDNAKNTVYLQMNSLKPEDTAVYYCAARFHKKGYWVYRMDYWGQGTQVTVSS | high polyreactivity
34 | QVQLVESGGGLVQAGGSLRLICAASGRTFGGNAMGWYRQAPGKERELVASITSRGGTTYYADSVKGRFTISRDNAKNTVYLQMNSLKPEDTAVYYCAALRRSSFGYWGQGTQVTVSS | high polyreactivity
35 | QVQLVESGGGLVQAGGSLRLICAASGRTFGVYSMGWYRQAPGKERELVAAISATGGSTYYADSVKGRFTISRDNAKNTVYLQMNSLKPEDTAVYYCARGGTTLYWGQGTQVTVSS | high polyreactivity
36 | QVQLVESGGGLVQAGGSLRLICAASGRTFQYNAMGWYRQAPGKERELVAAISARAGSTYYADSVKGRFTISRDNAKNTVYLQMNRLKPEDTAVYYCAARAWTRSVPYGFYYWGQGTQVTVSS | high polyreactivity
37 | QVQLVESGGGLVQAGGSLRLICAASGRTFRIYAMGWYRQEPGKDRQLVAAIRWSGGTTYYADSVKGRFTISRDYAKNTVYLQMNSLKPDDTSVYYCAADSTNRFDYWGQGTQVTVSS | high polyreactivity
38 | QVQLVESGGGLVQAGGSLRLICAASGRTFRYNAMGWYRQAPGKERELVAAITQSGGSTYYADSVKGRFTISRDNAKNTVYLQMNSLKPEDTAVYYCAKVRERINYDYWGQGTQVTVSS | low polyreactivity
39 | QVQLVESGGGLVQAGGSLRLICAASGRTFSGYAMGWYRPAPGKERELVAAINWSTGSTYYADSVKGRFTISRDNAQNTVYLQMNSLKPEDTAVYYCAAGYYYYGNGRIVQYEYWGQGTQVTVSS | high polyreactivity
40 | QVQLVESGGGLVQAGGSLRLICAASGRTFSSYSMGWYRQAPGKERELVAAISRSGARTYYADSVKGRFTISRDNAKNTFYVQMNSLKPEDTAVYSCAGVTVAGYDYWGQGTEVTVSS | high polyreactivity
41 | QVQLVESGGGLVQAGGSLRLICAASGRTFVYYAMGWYRQAPGKERELLAANSLSGSTYYAYSVKGRVTISRDNAKNTVDLHMYSLKPDDTAVYYCARPGGPDRTSSPYPYPYGYWGQGTQVTVSS | low polyreactivity
